Source: the RNAGym collection of RNA variant scans (doi:10.1021/acssynbio.7b00057)

B1: Pistol ribozyme (parent)
chain: GGGUCGUUGUUCCAUAAUCGCGUGGAUAUGGCACGCAAGUUUCUACCGGGCACCGUAAAUGUCCGACUGGAGCCGUUCGGGCGGCUAUAAACAGACCUCAGGCCCGAAGCGUGGCGGCACCUGCCGCCGGUGGUAAAAAAGAUCGGAAGAGCACACGUCU

Variants of: B1
Experiment: aptazyme ON/OFF ratio, guanine; higher = stronger switching; co-transcriptional cleavage with and without guanine

Row | Variant | aptazyme ON/OFF ratio
1 | U8A G9A U10C U11A C13A | 1.11
2 | U8A G9C U10G C12A C13U | 1.37
3 | U8A G9C U10G C12A C13G | 1.03
4 | U8A G9C U10G C12A C13A | 1.19
5 | U8A G9A U11G C12A C13A | 1.14
6 | U8A G9A U11G C12A C13G | 1.21
7 | U8A G9A U11G C12A C13U | 1.09
8 | U8A G9C U10G C12G C13G | 1.15
9 | U8A G9C U10G C12G C13U | 1.2
10 | U8A G9C U10G C12G C13A | 1.23
11 | U8A G9C U10C U11G C12G C13G | 1.12
12 | U8A G9C U10C U11G C12G C13U | 1.09
13 | U8A G9C U10C U11G C12G C13A | 1.14
14 | U8A G9A U10C U11A C12A C13G | 1.24
15 | U8A G9A U10C U11A C12A C13U | 1.17
16 | U8A G9A U10C U11A C12A C13A | 1.16
17 | U8A G9A U11G C12U | 1.35
18 | U8A G9A U11G C12G | 1.08
19 | U8A G9A U11G C12A | 1.08
20 | U8A G9C C12G C13U | 1.27
21 | U8A G9C C12G C13A | 1.2

Row | Variant | aptazyme ON/OFF ratio
22 | U8A G9C C12G C13G | 1.14
23 | U8A G9A U10G U11C C12U | 1.07
24 | U8A G9A U10G U11C C12G | 1.2
25 | U8A G9A U10G U11C C12A | 1.15
26 | U8A G9C U10C U11G | 0.775
27 | U8A G9C U10C U11C | 1.01
28 | U8A G9C U10C U11A | 0.878
29 | U8A G9C U10A U11A C12G C13U | 1.3
30 | U8A G9C U10A U11A C12G C13A | 1.14
31 | U8A G9C U10A U11A C12G C13G | 1.23
32 | U8A G9A U10C U11C C12A | 1.08
33 | U8A G9A U10C U11C C12U | 1.07
34 | U8A G9A U10C U11C C12G | 1.05
35 | U8A G9A U10C U11A C12U | 1.19
36 | U8A G9A U10C U11A C12A | 1.31
37 | U8A G9A U10C U11A C12G | 1.26
38 | U8A G9C U10A C12U C13G | 1.04
39 | U8A G9C U10A C12U C13U | 0.997
40 | U8A G9C U10A C12U C13A | 1.09
41 | U8A G9A U11A C12U C13U | 1.29
42 | U8A G9A U11A C12U C13G | 1.18

Row | Variant | aptazyme ON/OFF ratio
43 | U8A G9A U11A C12U C13A | 1.39
44 | U8A G9C U10C U11C C12G C13G | 1.05
45 | U8A G9C U10C U11C C12G C13U | 1.04
46 | U8A G9C U10C U11C C12G C13A | 1.01
47 | U8A G9A U10G U11G C12G C13G | 1.07
48 | U8A G9A U10G U11G C12G C13A | 1.01
49 | U8A G9A U10G U11G C12G C13U | 1.05
50 | U8A G9C C13U | 1.17
51 | U8A G9C C13G | 1.04
52 | U8A G9C C13A | 1.11
53 | U8A G9C U10A U11C C12A | 1.21
54 | U8A G9C U10A U11C C12U | 1.06
55 | U8A G9C U10A U11C C12G | 1.1
56 | U8A G9C U10C U11A C12U C13G | 1.06
57 | U8A G9C U10C U11A C12U C13A | 1.07
58 | U8A G9C U10C U11A C12U C13U | 1.13
59 | U8A G9C C12A C13G | 1.17
60 | U8A G9C C12A C13U | 1.25
61 | U8A G9C C12A C13A | 1.24
62 | U8A G9A U10G U11C C12A C13G | 1.08
63 | U8A G9A U10G U11C C12A C13U | 1.16

Row | Variant | aptazyme ON/OFF ratio
64 | U8A G9A U10G U11C C12A C13A | 1.12
65 | U8A G9C | 1.2
66 | U8A G9A U10C U11G C12G C13U | 1.17
67 | U8A G9A U10C U11G C12G C13G | 1.24
68 | U8A G9A U10C U11G C12G C13A | 1.28
69 | U8A G9A U10G U11G C12U C13G | 1.26
70 | U8A G9A U10G U11G C12U C13A | 1.36
71 | U8A G9A U10G U11G C12U C13U | 1.2
72 | U8A G9A U10G C12A C13U | 1.36
73 | U8A G9A U10G C12A C13A | 1.42
74 | U8A G9A U10G C12A C13G | 1.15
75 | U8A G9C U10C U11G C13U | 1.08
76 | U8A G9C U10C U11G C13A | 1.08
77 | U8A G9C U10C U11G C13G | 1.05
78 | U8A G9A U10C U11G C12G | 1.38
79 | U8A G9A U10C U11G C12U | 1.26
80 | U8A G9A U10C U11G C12A | 1.03
81 | U8A G9C U10C U11C C12A | 1.04
82 | U8A G9C U10C U11C C12U | 1
83 | U8A G9C U10C U11C C12G | 1.01
84 | U8A G9C U10C U11G C12U C13A | 1.07
